From patent US9144594B2, “Cathepsin L mediated diseases and associated methods and products” (University of Miami, priority 2005, dated 2015) come the findings set out here.

Assay [1] relates to dynamin-dynamin interactions. The experiment in a line: FLIM analysis of dynamin-dynamin interactions in live COS cells. The assay is classed as cell-based. Particulars: for dynamin-dynamin interactions measured by FLIM, in words: COS cells pre-treated. The text has this:
FLIM is based on the fluorescence resonance energy transfer (FRET) between the donor and acceptor that shortens the lifetime of the donor if the acceptor distance is within ≈100 Å (10 nm). […] To this end, dynamin was tagged with either ECFP or EYFP on its N- and C-termini. Fusion proteins were expressed in COS cells, because these cells are flattened and have minimal background autofluorescence, which allows clear visualization of cells by wide-field microscopy.
The observed decrease in fluorescence lifetime of CFP-dynamin in cells expressing EYFP-dynamin could result from interactions between dynamin monomers within tetramers/dimers, or from interactions between assembled tetramers/dimmers into higher order structures (FIG. 8C). To distinguish these two possibilities, we used FLIM to examine dynI690K. […] The longer average lifetimes of dynI690K than dynwt argue strongly that the assay detects higher order dynamin self-assembly and not tetramer formation.

For assay [2], the system named is dynamin-dynamin interactions. The experiment in a line: FLIM analysis of dynamin-dynamin interactions (self-assembly) in podocytes. The format is cell-based, mouse. Particulars: Table 4; donor GTPase-a488, acceptor Hudy1-a568; in ps. As to the method:
In one embodiment the cell-based assay to monitor dynamin-dynamin interactions is performed on a cultured mouse podocyte cell line and the readout of dynamin self-assembly using fluorescence lifetime imaging microscopy (FLIM). FLIM is based on the fluorescence resonance energy transfer (FRET) between the donor and acceptor that shortens the lifetime of the donor if the acceptor distance is within ≈100 Å (10 nm). […] The assay is based on overexpressing dynamin in podocytes, and subsequently staining fixed cells with monoclonal anti-dynamin antibodies that have been conjugated with donor or acceptor florophores. In one embodiment of the invention, Alexa-488 is used as the donor florophore and Alexa-568 is used as the acceptor florophore. In yet another embodiment the donor florophore is dynamin conjugated enhanced-cyan fluorescence protein (ECFP) and the acceptor is dynamin conjugated enhanced yellow-fluorescence protein (EYFP). It will be appreciated by the person of ordinary skill in the art that numerous combinations of FRET donor and acceptors can be used, which are readily available and known. In one embodiment, the FLIM assay is carried out in COS cells and the donor can be selected from the list consisting of: ECFP-WT, ECFP-1690K, ECFP-K44A, ECFP-K694A, and the -acceptor can be selected from the list consisting of: EYFP, EYFP-WT, EYFP-K44A, EYFP-1690K, EYFP-K694A. In yet another embodiment the FLIM assay is performed in podocytes and the donor is GTPase-Alexa488 and the acceptor is selected from the list consisting of: DAM-Alexa568, GTPase-Alexa568, and Hudyl-Alexa568. Cells are stained by mixing both donor and acceptor florophores in equal amounts, and examining the spatially-restricted lifetime shortening in cells detects the localization of dynamin-dynamin interactions in cells. Since dynamin-dynamin interactions are vital for the function of the podocyte, it will be appreciated by the person of ordinary skill in the art that this assay can now be used to screen peptides, small molecules or drugs which can affect these molecular interactions. For example such molecules are cytocholasin D, jasplakinolide, colchisine, dynK44A, dynK694A, dynWT, dynI690K, dynR725A (SEQ ID NO.4), dynL356Q, G358V, (SEQ ID NO.3) any combination thereof, etc.
In order to test the hypothesis that self-assembly of dynamin was protecting its cathepsin L processing in cultured podocytes, dynamin self-assembly in live cells was examined using fluorescence lifetime imaging microscopy (FLIM). FLIM is based on the fluorescence resonance energy transfer (FRET) between the donor and the acceptor that shortens the lifetime of the donor if the acceptor distance is within ≈100 Å (10 nm). […] A FLIM-assay was developed that specifically detects dynamin self-assembly into the higher order structures in podocytes. The assay is based on overexpressing dynamin in podocytes, and subsequently staining fixed cells with monoclonal anti-dynamin antibodies that have been conjugated with either Alexa-488 (donor florophore) or Alexa-568 (acceptor florophore). Cells are stained by mixing both florophores in equal amounts, and examining lifetime of Alexa-488. […] Importantly, FRET only occurred in the vicinity of the membrane. […] Thus, both dominant activating mutants, dynK694A and dynR725A, are impaired for assembly into a supramolecular structures in podocytes under normal conditions. […] Loss of FRET measured FLIM correlates with the loss of p40 proteolytic fragment in cultured podocytes. And presence of p40 in cells expressing dynR725A under normal conditions correlates with the lack of dynR725A assembly detected by FLIM. The opposite is true for the dynWT; lack of p40 under control conditions when FLIM is present, and appearance of the p40 upon LPS treatment with no measurable FRET. […] Finally, proteolytic processing of dynamin after LPS treatment is also observed in vivo. […]

Assay [3] deals with LPS induced mouse proteinuria model. The experiment in a line: LPS induced mouse proteinuria model, protein in urine (prevention and reversal by dynamin gene delivery). The format is in vivo. To be noted: Table 5 Reversal, 2xLPS. As to the method:
Next, it was examined whether gene transfer of dynR725A and dynL356Q, G358V was able to protect from LPS induced changes of podocyte FP and thus proteinuria (FIGS. 6A-B); (Table 2B). […] Whereas the application of wildtype dynamin was unable to protect from LPS induced podocyte FP effacement (data not shown) and proteinuria (0.63 mg/ml after 24 hours, p<0.05 and 1.18 mg/ml after 48 hours, p<0.04); table 2B, the co-administration of R725A together with LPS completely abolished the development of proteinuria after 24 hours (0.20 mg/ml). Podocyte FPs remained normal at this timepoint (FIG. 6B). The decline of R725A expression in podocytes was then associated with the development of proteinuria (1.25 mg/ml, 48 h). At this time point, there was noticeable podocyte FP effacement. The application of the cathepsin L resistant dynamin mutant L356Q, G358V together with LPS conferred a partial protection from proteinuria (0.47 mg/ml, P<0.05). This protection was associated with normal appearing podocyte FP (FIG. 6C). Although this protection was not as strong as the one provided by dynR725A, it was prolonged and was still present even after the second dose of LPS ([…], P<0.04). This observation argues that lower expression levels of dynL356Q, G358V are required to protect from LPS induced FP effacement but the presence of dynR725A has the most powerful protection.
Another set of experiments was carried out to study whether dynR725A and dynL356Q, G358V are also useful once there is already established podocyte damage and proteinuria (reversal experiments), (FIGS. 6C, D); (Table 2C). First LPS was injected in mice at 0 and 24 hours and the course of urinary protein loss was documented. On the peak phase of proteinuria at 48 hours after the first LPS injection, either delivery solution (control), dynR725A or dynL356Q, G358V dynamin mutants were transferred and the morphology of podocyte FP was analyzed and the degree of proteinuria was determined 10 hours later when there was strong expression of the transferred gene in podocytes. […] A dramatic reformation of podocyte FPs was also observed (FIG. 6C). The same observation was true for L356Q, G358V (FIG. 6D) which was able to reduce proteinuria from 1.20 mg/ml to 0.71 mg/ml). From the in vitro data it was determined that R725A starts to self assemble into higher order structures in the LPS setting which render dynamin assembly domain protected from cathepsin L cleavage. […] In addition, dominant activating dynR725A proves useful because despite causing podocyte damage in wildtype mice, it can resist cathepsin L cleavage by self assembly in the LPS setting and have strong activity by impairment in its GTP hydrolysis.
If dynamin is a target of CatL, then dynL356Q and dynR725A, which are resistant to CatL cleavage, might protect kidneys from LPS. In control mice, two injections of LPS led to FP effacement (FIG. 21C) and a large increase in proteinuria (FIG. 21E, Con).
Next it was examined whether dynL356Q and dynR725A can reverse already established proteinuria. LPS was injected into mice at 0 and 24 hours. At the peak of proteinuria at 48 hours, mice were injected with dynWT, dynL356Q, or dynR725A, and the degree of proteinuria was analyzed 12 hours post injection. […] The rescue could be achieved with both podocin and CMV-driven protein expression.
All animal studies were approved by the MGH Subcommittee for Research Animal Care. C57BL6 mice were obtained from Jackson Laboratory (Bar Harbor, Me.). CatL−/− mice are in a pure C57BL6 background (Nakagawa et al., Science 280, 450-453 (1998)). LPS induced mouse proteinuria model was utilized as previously described (Reiser et al., J Clin Invest 113, 1390-1397 (2004)). Rat PAN nephrosis model was induced by a single intravenous injection of PAN (180 mg/kg body wt; Sigma-Aldrich, St. Louis, Mo.) (Kim et al., Am J Physiol Renal Physiol 286, F922-935 (2004)). […]

For assay [4], the system named is mice. The experiment in a line: Protein in urine after in vivo gene delivery of dynamin mutants into healthy mice (Bradford). Set-up: species or system mouse. To be noted: Table 5 Basic Phenotype, podocin-driven vectors. Here is the method: Next, the level of urinary protein loss following gene delivery of dynamin mutants was examined (Table 2). […] The expression of K44A was associated with severe proteinuria (1.18 mg/ml) at peak gene expression time of 10 hours post injection. The reduction in gene expression was paralleled by a reduction in proteinuria (0.77 mg/ml). Gene transfer of dynR725A caused an increase in proteinuria (0.58 mg/ml). Although this was not a significant increase, it is probable that it is a consequence of the partial podocyte FP effacement seen after gene transfer of dynR725A, and due to increase in the stress fibers formation observed in cultured podocytes.
To explore whether functional dynamin is required for the maintenance of FP morphology in healthy kidneys, it was examined whether expression of dominant negative dynK44A disrupts podocyte function. […] In contrast, podocin driven expression of dynK44A, the dynamin mutant that cannot bind GTP, caused FP effacement (FIG. 21B) and proteinuria (1.1±0.26 mg/ml) at the peak of gene expression […] after gene delivery (FIGS. 21D and 25C). […] In other words, tight regulation of the life-time of the GTP-bound form of dynamin appears to be required for normal FP morphology and ultrafiltration.
CatL plasmids encoding short and long CatL (Goulet et al., Biol Chem 387, 1285-1293 (2004)), Dyn1 plasmids (pcDNA-driven) or p2.5 Podocin-driven (Moeller et al., Genesis 35, 39-42 (2003)) were introduced into mice (n>10, each construct) using the TransIT in vivo gene delivery system according to the manufacturer's instruction (Mirus Bio Corporation, Madison, Wis.). 10 and 24 h after gene delivery, proteinuria was assessed by Multistix 8 SG strips (Bayer Corporation, Elkhart, Ind.), and Bradford protein assay (Sigma, Saint Louis, Mo.). From the same urines the protein creatinine ratio was determined with Albuwell M and Creatinine Companion protein creatinine ELISA kits (Exocell Inc., Philadelphia, Pa.).

As for b-methyl-cyclodextrin [MBCD], in assay [1], the “dynamin-dynamin interactions measured by FLIM, in words” value is given as “occurred unchanged”. For the same molecule, in assay [1] (Table 3, donor CFP-WT, acceptor YFP-WT, cells treated with the substance), the “Mean Lifetime (γ1) ps” value is on record as 916 ± 427 ps.

With `COc1cc2c(c(OC)c1OC)-c1ccc(OC)c(=O)cc1[C@@H](NC(C)=O)CC2` [Colchisine, reference compound], in assay [2], the “Mean Lifetime (γ1)” value is reported as 2295 ± 98.

As for `COC(=O)Nc1nc2ccc(C(=O)c3cccs3)cc2[nH]1` [nocodazole], the “dynamin-dynamin interactions measured by FLIM, in words” value in assay [1] is “had no effect on dynamin oligomerization”.

B1: L356Q (podo): podocin promoter-driven dynL356Q vector, gene delivery (protein, UniProt Q05193 1-864, looked up, variant L356Q)
Dynamin-1: MGNRGMEDLIPLVNRLQDAFSAIGQNADLDLPQIAVVGGQSAGKSSVLENFVGRDFLPRGSGIVTRRPLVLQLVNATTEYAEFLHCKGKKFTDFEEVRLEIEAETDRVTGTNKGISPVPINLRVYSPHVLNLTLVDLPGMTKVPVGDQPPDIEFQIRDMLMQFVTKENCLILAVSPANSDLANSDALKVAKEVDPQGQRTIGVITKLDLMDEGTDARDVLENKLLPLRRGYIGVVNRSQKDIDGKKDITAALAAERKFFLSHPSYRHLADRMGTPYLQKVLNQQLTNHIRDTLPGLRNKLQSQLLSIEKEVEEYKNFRPDDPARKTKALLQMVQQFAVDFEKRIEGSGDQIDTYEQSGGARINRIFHERFPFELVKMEFDEKELRREISYAIKNIHGIRTGLFTPDMAFETIVKKQVKKIREPCLKCVDMVISELISTVRQCTKKLQQYPRLREEMERIVTTHIREREGRTKEQVMLLIDIELAYMNTNHEDFIGFANAQQRSNQMNKKKTSGNQDEILVIRKGWLTINNIGIMKGGSKEYWFVLTAENLSWYKDDEEKEKKYMLSVDNLKLRDVEKGFMSSKHIFALFNTEQRNVYKDYRQLELACETQEEVDSWKASFLRAGVYPERVGDKEKASETEENGSDSFMHSMDPQLERQVETIRNLVDSYMAIVNKTVRDLMPKTIMHLMINNTKEFIFSELLANLYSCGDQNTLMEESAEQAQRRDEMLRMYHALKEALSIIGDINTTTVSTPMPPPVDDSWLQVQSVPAGRRSPTSSPTPQRRAPAVPPARPGSRGPAPGPPPAGSALGGAPPVPSRPGASPDPFGPPPQVPSRPNRAPPGVPSRSGQASPSRPESPRPPFDL
modifications: podocin promoter vector
notes: podocin promoter-driven dynL356Q vector, gene delivery
For B1, the “Protein in the urine” value is 0.29 ± 0.05 mg/mL in assay [3] (t = 0); 1.36 ± 0.49 mg/mL in assay [3] (t = 48 h); 0.73 ± 0.29 (6.9 × 10^−3) mg/ml in assay [3] (t = 58 h); 0.24 ± 0.05 mg/mL in assay [4] (t = 0); 0.45 ± 0.12 (2.5 × 10^−3) mg/ml in assay [4] (t = 14 h); 0.35 ± 0.018 mg/mL in assay [4] (t = 24 h).
